According to patent publication US20140087995A1 (published 2014):
Numbered stars: 1 amine (or outer) side, 2 acyl side, 3 side chain; on linkers, the order of the positions; unused ones are H or OH. Bridge positions count the residues as written; N and C are the ends. Side chains are listed from the residue outwards. Ends that are not written are not given here. * marks the point of attachment. C20 diacid = O=C(O)CCCCCCCCCCCCCCCCCCC(=O)*; γGlu = O=C(O)[C@H](CCC(=O)[*:2])N[*:1]; AEEA = NCCOCCOCC(=O)O

T1: human calcitonin receptor (human, UniProt P30988 25-474)
T1 sequence (looked up): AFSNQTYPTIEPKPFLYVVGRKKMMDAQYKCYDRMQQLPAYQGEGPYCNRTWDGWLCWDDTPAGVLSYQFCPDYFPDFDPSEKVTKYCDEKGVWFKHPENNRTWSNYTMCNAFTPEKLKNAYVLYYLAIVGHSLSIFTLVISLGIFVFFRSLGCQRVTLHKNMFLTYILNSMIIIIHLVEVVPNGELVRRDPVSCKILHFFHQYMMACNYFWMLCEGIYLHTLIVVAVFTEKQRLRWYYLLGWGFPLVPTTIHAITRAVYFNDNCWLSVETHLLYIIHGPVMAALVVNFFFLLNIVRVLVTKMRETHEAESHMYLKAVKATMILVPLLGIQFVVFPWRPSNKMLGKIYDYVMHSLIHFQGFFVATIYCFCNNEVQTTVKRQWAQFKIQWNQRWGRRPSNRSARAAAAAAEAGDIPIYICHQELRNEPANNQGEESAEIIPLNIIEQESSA

B1: N^ε1-[2-[2-[2-[[(4S)-4-carboxy-4-(19-carboxynonadecanoylamino)butanoyl]amino]ethoxy]ethoxy]acetyl]-[Ser14,Arg17,Pro21,Pro27,Pro31]-h-amylin (peptide)
peptide: K([AEEA-γGlu-C20 diacid])CNTATCATQRLASFLRHSSPNFGAIPSSTPVGSNTY-NH2
modifications: disulfide 2-7; N-terminus assumed
SMILES: CC[C@H](C)[C@H](NC(=O)[C@H](C)NC(=O)CNC(=O)[C@H](Cc1ccccc1)NC(=O)[C@H](CC(N)=O)NC(=O)[C@@H]1CCCN1C(=O)[C@H](CO)NC(=O)[C@H](CO)NC(=O)[C@H](Cc1c[nH]cn1)NC(=O)[C@H](CCCNC(=N)N)NC(=O)[C@H](CC(C)C)NC(=O)[C@H](Cc1ccccc1)NC(=O)[C@H](CO)NC(=O)[C@H](C)NC(=O)[C@H](CC(C)C)NC(=O)[C@H](CCCNC(=N)N)NC(=O)[C@H](CCC(N)=O)NC(=O)[C@@H](NC(=O)[C@H](C)NC(=O)[C@@H]1CSSC[C@H](NC(=O)[C@@H](N)CCCCNC(=O)COCCOCCNC(=O)CC[C@H](NC(=O)CCCCCCCCCCCCCCCCCCC(=O)O)C(=O)O)C(=O)N[C@@H](CC(N)=O)C(=O)N[C@@H]([C@@H](C)O)C(=O)N[C@@H](C)C(=O)N[C@@H]([C@@H](C)O)C(=O)N1)[C@@H](C)O)C(=O)N1CCC[C@H]1C(=O)N[C@@H](CO)C(=O)N[C@@H](CO)C(=O)N[C@H](C(=O)N1CCC[C@H]1C(=O)N[C@H](C(=O)NCC(=O)N[C@@H](CO)C(=O)N[C@@H](CC(N)=O)C(=O)N[C@H](C(=O)N[C@@H](Cc1ccc(O)cc1)C(N)=O)[C@@H](C)O)C(C)C)[C@@H](C)O
notes: analogue of human amylin; also called compound 73
B2: N^ε1-[2-[2-[2-[[(4S)-4-carboxy-4-(19-carboxynonadecanoylamino)butanoyl]amino]ethoxy]ethoxy]acetyl]-[Thr14,Arg17,Pro21,Pro27,Pro31]-h-amylin (peptide)
peptide: K([AEEA-γGlu-C20 diacid])CNTATCATQRLATFLRHSSPNFGAIPSSTPVGSNTY-NH2
modifications: disulfide 2-7; N-terminus assumed
SMILES: CC[C@H](C)[C@H](NC(=O)[C@H](C)NC(=O)CNC(=O)[C@H](Cc1ccccc1)NC(=O)[C@H](CC(N)=O)NC(=O)[C@@H]1CCCN1C(=O)[C@H](CO)NC(=O)[C@H](CO)NC(=O)[C@H](Cc1c[nH]cn1)NC(=O)[C@H](CCCNC(=N)N)NC(=O)[C@H](CC(C)C)NC(=O)[C@H](Cc1ccccc1)NC(=O)[C@@H](NC(=O)[C@H](C)NC(=O)[C@H](CC(C)C)NC(=O)[C@H](CCCNC(=N)N)NC(=O)[C@H](CCC(N)=O)NC(=O)[C@@H](NC(=O)[C@H](C)NC(=O)[C@@H]1CSSC[C@H](NC(=O)[C@@H](N)CCCCNC(=O)COCCOCCNC(=O)CC[C@H](NC(=O)CCCCCCCCCCCCCCCCCCC(=O)O)C(=O)O)C(=O)N[C@@H](CC(N)=O)C(=O)N[C@@H]([C@@H](C)O)C(=O)N[C@@H](C)C(=O)N[C@@H]([C@@H](C)O)C(=O)N1)[C@@H](C)O)[C@@H](C)O)C(=O)N1CCC[C@H]1C(=O)N[C@@H](CO)C(=O)N[C@@H](CO)C(=O)N[C@H](C(=O)N1CCC[C@H]1C(=O)N[C@H](C(=O)NCC(=O)N[C@@H](CO)C(=O)N[C@@H](CC(N)=O)C(=O)N[C@H](C(=O)N[C@@H](Cc1ccc(O)cc1)C(N)=O)[C@@H](C)O)C(C)C)[C@@H](C)O
notes: analogue of human amylin; also called compound 75
B3: N^ε1-[(4S)-4-carboxy-4-(19-carboxynonadecanoylamino)butanoyl]-[Arg14,Arg17,Pro21,Pro27,Pro31]-h-amylin (peptide)
peptide: K([γGlu-C20 diacid])CNTATCATQRLARFLRHSSPNFGAIPSSTPVGSNTY-NH2
modifications: disulfide 2-7; N-terminus assumed
SMILES: CC[C@H](C)[C@H](NC(=O)[C@H](C)NC(=O)CNC(=O)[C@H](Cc1ccccc1)NC(=O)[C@H](CC(N)=O)NC(=O)[C@@H]1CCCN1C(=O)[C@H](CO)NC(=O)[C@H](CO)NC(=O)[C@H](Cc1c[nH]cn1)NC(=O)[C@H](CCCNC(=N)N)NC(=O)[C@H](CC(C)C)NC(=O)[C@H](Cc1ccccc1)NC(=O)[C@H](CCCNC(=N)N)NC(=O)[C@H](C)NC(=O)[C@H](CC(C)C)NC(=O)[C@H](CCCNC(=N)N)NC(=O)[C@H](CCC(N)=O)NC(=O)[C@@H](NC(=O)[C@H](C)NC(=O)[C@@H]1CSSC[C@H](NC(=O)[C@@H](N)CCCCNC(=O)CC[C@H](NC(=O)CCCCCCCCCCCCCCCCCCC(=O)O)C(=O)O)C(=O)N[C@@H](CC(N)=O)C(=O)N[C@@H]([C@@H](C)O)C(=O)N[C@@H](C)C(=O)N[C@@H]([C@@H](C)O)C(=O)N1)[C@@H](C)O)C(=O)N1CCC[C@H]1C(=O)N[C@@H](CO)C(=O)N[C@@H](CO)C(=O)N[C@H](C(=O)N1CCC[C@H]1C(=O)N[C@H](C(=O)NCC(=O)N[C@@H](CO)C(=O)N[C@@H](CC(N)=O)C(=O)N[C@H](C(=O)N[C@@H](Cc1ccc(O)cc1)C(N)=O)[C@@H](C)O)C(C)C)[C@@H](C)O
notes: analogue of human amylin; also called compound 63
B4: N^ε1-[(4S)-4-carboxy-4-(19-carboxynonadecanoylamino)butanoyl]-[Arg17,Pro21,Pro27,Glu35]-h-amylin (peptide)
peptide: K([γGlu-C20 diacid])CNTATCATQRLANFLRHSSPNFGAIPSSTNVGSETY-NH2
modifications: disulfide 2-7; N-terminus assumed
SMILES: CC[C@H](C)[C@H](NC(=O)[C@H](C)NC(=O)CNC(=O)[C@H](Cc1ccccc1)NC(=O)[C@H](CC(N)=O)NC(=O)[C@@H]1CCCN1C(=O)[C@H](CO)NC(=O)[C@H](CO)NC(=O)[C@H](Cc1c[nH]cn1)NC(=O)[C@H](CCCNC(=N)N)NC(=O)[C@H](CC(C)C)NC(=O)[C@H](Cc1ccccc1)NC(=O)[C@H](CC(N)=O)NC(=O)[C@H](C)NC(=O)[C@H](CC(C)C)NC(=O)[C@H](CCCNC(=N)N)NC(=O)[C@H](CCC(N)=O)NC(=O)[C@@H](NC(=O)[C@H](C)NC(=O)[C@@H]1CSSC[C@H](NC(=O)[C@@H](N)CCCCNC(=O)CC[C@H](NC(=O)CCCCCCCCCCCCCCCCCCC(=O)O)C(=O)O)C(=O)N[C@@H](CC(N)=O)C(=O)N[C@@H]([C@@H](C)O)C(=O)N[C@@H](C)C(=O)N[C@@H]([C@@H](C)O)C(=O)N1)[C@@H](C)O)C(=O)N1CCC[C@H]1C(=O)N[C@@H](CO)C(=O)N[C@@H](CO)C(=O)N[C@H](C(=O)N[C@@H](CC(N)=O)C(=O)N[C@H](C(=O)NCC(=O)N[C@@H](CO)C(=O)N[C@@H](CCC(=O)O)C(=O)N[C@H](C(=O)N[C@@H](Cc1ccc(O)cc1)C(N)=O)[C@@H](C)O)C(C)C)[C@@H](C)O
notes: analogue of human amylin; also called compound 27
B5: N^ε1-[(4S)-4-carboxy-4-(19-carboxynonadecanoylamino)butanoyl]-[Arg14,Arg17,Pro21,Pro27,Pro34]-h-amylin (peptide)
peptide: K([γGlu-C20 diacid])CNTATCATQRLARFLRHSSPNFGAIPSSTNVGPNTY-NH2
modifications: disulfide 2-7; N-terminus assumed
SMILES: CC[C@H](C)[C@H](NC(=O)[C@H](C)NC(=O)CNC(=O)[C@H](Cc1ccccc1)NC(=O)[C@H](CC(N)=O)NC(=O)[C@@H]1CCCN1C(=O)[C@H](CO)NC(=O)[C@H](CO)NC(=O)[C@H](Cc1c[nH]cn1)NC(=O)[C@H](CCCNC(=N)N)NC(=O)[C@H](CC(C)C)NC(=O)[C@H](Cc1ccccc1)NC(=O)[C@H](CCCNC(=N)N)NC(=O)[C@H](C)NC(=O)[C@H](CC(C)C)NC(=O)[C@H](CCCNC(=N)N)NC(=O)[C@H](CCC(N)=O)NC(=O)[C@@H](NC(=O)[C@H](C)NC(=O)[C@@H]1CSSC[C@H](NC(=O)[C@@H](N)CCCCNC(=O)CC[C@H](NC(=O)CCCCCCCCCCCCCCCCCCC(=O)O)C(=O)O)C(=O)N[C@@H](CC(N)=O)C(=O)N[C@@H]([C@@H](C)O)C(=O)N[C@@H](C)C(=O)N[C@@H]([C@@H](C)O)C(=O)N1)[C@@H](C)O)C(=O)N1CCC[C@H]1C(=O)N[C@@H](CO)C(=O)N[C@@H](CO)C(=O)N[C@H](C(=O)N[C@@H](CC(N)=O)C(=O)N[C@H](C(=O)NCC(=O)N1CCC[C@H]1C(=O)N[C@@H](CC(N)=O)C(=O)N[C@H](C(=O)N[C@@H](Cc1ccc(O)cc1)C(N)=O)[C@@H](C)O)C(C)C)[C@@H](C)O
notes: analogue of human amylin; also called compound 65

Biological target: T1, human calcitonin receptor
Assay: cell-based or functional assay

Going from B1 to B2, the “hCTR funct. EC50” value rises from 0.961 nM to 9.07 nM (9.4-fold).

Compared with B3, B4 is 1.7-fold lower in “hCTR funct. EC50” value: 5.13 nM for the first, 3 nM for the second.

With B5 the “hCTR funct. EC50” value was 9.33 nM.
